{"source": "paper PMC2688778", "about": "(Structure (London, England : 1993), 2009)", "binders": {"B1": {"name": "F25 (dsDNA)", "DNA 1": "TAGAGCTTAATTGCTGAATCTGGTG", "DNA 2": "CACCAGATTCAGCAATTAAGCTCTA"}}, "assay_in_all_cases": "fluorescence anisotropy", "key": {"RecE564 del858-866": {"target": "T1, RecE564 del858-866 (Escherichia coli K12, UniProt P15032 564-857, del858-866)", "T1 sequence": "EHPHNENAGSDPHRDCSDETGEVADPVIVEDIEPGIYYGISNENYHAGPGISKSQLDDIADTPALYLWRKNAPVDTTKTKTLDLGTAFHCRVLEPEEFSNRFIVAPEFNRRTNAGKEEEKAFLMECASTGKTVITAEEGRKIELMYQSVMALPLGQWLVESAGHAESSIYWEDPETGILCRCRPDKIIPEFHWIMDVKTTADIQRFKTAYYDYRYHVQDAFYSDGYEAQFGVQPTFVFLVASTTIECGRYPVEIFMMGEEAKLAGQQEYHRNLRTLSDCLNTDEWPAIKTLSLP"}, "RecE564 R768A": {"target": "T2, RecE564 R768A (Escherichia coli K12, UniProt P15032 564-866, R768A)", "T2 sequence": "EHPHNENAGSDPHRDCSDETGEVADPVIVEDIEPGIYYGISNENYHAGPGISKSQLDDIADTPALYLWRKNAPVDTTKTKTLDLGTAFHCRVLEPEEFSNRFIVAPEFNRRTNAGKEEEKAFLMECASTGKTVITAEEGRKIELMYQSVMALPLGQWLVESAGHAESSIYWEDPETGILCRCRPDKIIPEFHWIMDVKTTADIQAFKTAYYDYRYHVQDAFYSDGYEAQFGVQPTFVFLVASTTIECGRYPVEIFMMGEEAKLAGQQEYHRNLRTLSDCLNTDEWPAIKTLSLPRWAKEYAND"}, "RecE564 R858A": {"target": "T3, RecE564 R858A (Escherichia coli K12, UniProt P15032 564-866, R858A)", "T3 sequence": "T2 sequence with A205R, R295A"}, "RecE564 H609A": {"target": "T4, RecE564 H609A (Escherichia coli K12, UniProt P15032 564-866, H609A)", "T4 sequence": "T2 sequence with H46A, A205R"}, "RecE564 W859A": {"target": "T5, RecE564 W859A (Escherichia coli K12, UniProt P15032 564-866, W859A)", "T5 sequence": "T2 sequence with A205R, W296A"}, "RecE564 K643A": {"target": "T6, RecE564 K643A (Escherichia coli K12, UniProt P15032 564-866, K643A)", "T6 sequence": "T2 sequence with K80A, A205R"}}, "note": "Substitutions are numbered along the chain they refer to.", "data": [{"binder": "B1", "values": [{"measurement": "Kd", "setting": "RecE564 del858-866", "result": "660 ± 80", "unit": "nM"}, {"measurement": "Kd", "setting": "RecE564 R768A", "result": "310 ± 30", "unit": "nM"}, {"measurement": "Kd", "setting": "RecE564 R858A", "result": "77 ± 5", "unit": "nM"}, {"measurement": "Kd", "setting": "RecE564 H609A", "result": "50 ± 3", "unit": "nM"}, {"measurement": "Kd", "setting": "RecE564 W859A", "result": "350 ± 20", "unit": "nM"}, {"measurement": "Kd", "setting": "RecE564 K643A", "result": "210 ± 6", "unit": "nM"}]}]}
